From US10472401B2, “Peptides and combination of peptides for use in immunotherapy against ovarian cancer and other cancers” (immatics biotechnologies GmbH, priority 2015, dated 2019)

Molecular target: HLA-A*02:01 (Homo sapiens, UniProt P04439, D140Y/D185E/D98H/E176V/E277Q/G131W/G231S/I119V/I121R/I166T/I218V/L300P/L318F/N151K/N90K/P208A/P217A/Q86G/Q94H/R138H/R169H/T345S)
Test: MHC binding assay (UV-ligand exchange, ELISA of stabilized MHC complexes)
Conditions: MHC class I binding score; binding to HLA-A*02:01 ranged by peptide exchange yield (UV-ligand exchange, ELISA)
Procedure, shortened: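 Binding scored as exchange yield, detected via β2m of stabilized complexes in an HRP/TMB ELISA read at 450 nm after streptavidin capture of 100-fold diluted monomers for 1 h at 37 °C. Complexes came from UV irradiation cleaving a photolabile peptide, exchanged for the candidate.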

Row | Substance | Peptide exchange
1 | 562 (YLEELPEKLKL; listed as Homo sapiens) [compound 562] | ″+++″ (≥50% = +++)
2 | 111 (YVWGFYPAEV; listed as Homo sapiens) [compound 111] | ″+++″ (≥50% = +++)
3 | 310 (FLVDTPLARA; listed as Homo sapiens) [compound 310] | ″++++″ (≥75% = ++++)
4 | 315 (YLQDVVEQA; listed as Homo sapiens) [compound 315] | ″+++″ (≥50% = +++)
5 | 609 (ALWKQLLEL; listed as Homo sapiens) [compound 609] | ″+++″ (≥50% = +++)
6 | 306 (ALVNVQIPL; listed as Homo sapiens) [compound 306] | ″+++″ (≥50% = +++)
7 | 527 (FLLEPGNLEV; listed as Homo sapiens) [compound 527] | ″++++″ (≥75% = ++++)
8 | 567 (SLLPLDDIVRV; listed as Homo sapiens) [compound 567] | ″+++″ (≥50% = +++)
9 | 621 (VLMDRLPSLL; listed as Homo sapiens) [compound 621] | ″++++″ (≥75% = ++++)
10 | 52 (FLLAHGLGFLL; listed as Homo sapiens) [compound 52] | ″++++″ (≥75% = ++++)
11 | 345 (VIWKALIHL; listed as Homo sapiens) [compound 345] | ″+++″ (≥50% = +++)
12 | 243 (LLLNELPSV; listed as Homo sapiens) [compound 243] | ″+++″ (≥50% = +++)
13 | 373 (SLLEDKGLAEV; listed as Homo sapiens) [compound 373] | ″++″ (≥20% = ++)
14 | 242 (AIAYILQGV; listed as Homo sapiens) [compound 242] | ″++″ (≥20% = ++)
15 | 69 (FQLDPSSGVLVTV; listed as Homo sapiens) [compound 69] | ″+++″ (≥50% = +++)
16 | 316 (ILLERLWYV; listed as Homo sapiens) [compound 316] | ″+++″ (≥50% = +++)
17 | 403 (KLYDRILRV; listed as Homo sapiens) [compound 403] | ″++″ (≥20% = ++)
18 | 25 (FLPDEPYIKV; listed as Homo sapiens) [compound 25] | ″+++″ (≥50% = +++)
19 | 618 (VLFDSESIGIYV; listed as Homo sapiens) [compound 618] | ″+++″ (≥50% = +++)
20 | 146 (SLATAGDGLIEL; listed as Homo sapiens) [compound 146] | ″++″ (≥20% = ++)
21 | 490 (FLLQHVQEL; listed as Homo sapiens) [compound 490] | ″+++″ (≥50% = +++)
22 | 374 (FLLQQHLISA; listed as Homo sapiens) [compound 374] | ″++″ (≥20% = ++)
23 | 585 (ALWDLAADKQTL; listed as Homo sapiens) [compound 585] | ″++++″ (≥75% = ++++)
24 | 134 (YLQELIFSV; listed as Homo sapiens) [compound 134] | ″+++″ (≥50% = +++)
25 | 161 (ALLEGVNTV; listed as Homo sapiens) [compound 161] | ″+++″ (≥50% = +++)
26 | 171 (LLLPLQILL; listed as Homo sapiens) [compound 171] | ″+++″ (≥50% = +++)

Row | Substance | Peptide exchange
27 | 405 (ALYDVFLEV; listed as Homo sapiens) [compound 405] | ″++″ (≥20% = ++)
28 | 461 (VMFRTPLASV; listed as Homo sapiens) [compound 461] | ″++″ (≥20% = ++)
29 | 186 (TLFFQQNAL; listed as Homo sapiens) [compound 186] | ″++″ (≥20% = ++)
30 | 398 (KLLEEDGTIITL; listed as Homo sapiens) [compound 398] | ″++″ (≥20% = ++)
31 | 102 (YLFESEGLVL; listed as Homo sapiens) [compound 102] | ″+++″ (≥50% = +++)
32 | 412 (YLDDLNEGVYI; listed as Homo sapiens) [compound 412] | ″++″ (≥20% = ++)
33 | 98 (LIIDQADIYL; listed as Homo sapiens) [compound 98] | ″+++″ (≥50% = +++)
34 | 309 (GLFDGVPTTA; listed as Homo sapiens) [compound 309] | ″+++″ (≥50% = +++)
35 | 154 (ALDDGTPAL; listed as Homo sapiens) [compound 154] | ″++″ (≥20% = ++)
36 | 27 (ILADIVISA; listed as Homo sapiens) [compound 27] | ″+++″ (≥50% = +++)
37 | 71 (GILARIASV; listed as Homo sapiens) [compound 71] | ″+++″ (≥50% = +++)
38 | 523 (YQIPRTFTL; listed as Homo sapiens) [compound 523] | ″++″ (≥20% = ++)
39 | 278 (QLLDVVLTI; listed as Homo sapiens) [compound 278] | ″++″ (≥20% = ++)
40 | 566 (VIADGGIQNV; listed as Homo sapiens) [compound 566] | ″++″ (≥20% = ++)
41 | 590 (SLIEKLWQT; listed as Homo sapiens) [compound 590] | ″++″ (≥20% = ++)
42 | 249 (LLDGFLVNV; listed as Homo sapiens) [compound 249] | ″+++″ (≥50% = +++)
43 | 333 (FLPDANSSV; listed as Homo sapiens) [compound 333] | ″++″ (≥20% = ++)
44 | 41 (SLMPHIPGL; listed as Homo sapiens) [compound 41] | ″+++″ (≥50% = +++)
45 | 90 (TLLQIIETV; listed as Homo sapiens) [compound 90] | ″+++″ (≥50% = +++)
46 | 151 (KILQQLVTL; listed as Homo sapiens) [compound 151] | ″+++″ (≥50% = +++)
47 | 520 (LAVHPSGVAL; listed as Homo sapiens) [compound 520] | ″+″ (≥10% = +)
48 | 240 (ILLEQAFYL; listed as Homo sapiens) [compound 240] | ″+++″ (≥50% = +++)
49 | 14 (AAYGGLNEKSFV; listed as Homo sapiens) [compound 14] | ″+++″ (≥50% = +++)
50 | 383 (ALLELENSVTL; listed as Homo sapiens) [compound 383] | ″+++″ (≥50% = +++)
51 | 257 (SIFSAFLSV; listed as Homo sapiens) [compound 257] | ″+++″ (≥50% = +++)
52 | 75 (GLLEVMVNL; listed as Homo sapiens) [compound 75] | ″+++″ (≥50% = +++)

Row | Substance | Peptide exchange
53 | 331 (KVDTVWVNV; listed as Homo sapiens) [compound 331] | ″+++″ (≥50% = +++)
54 | 24 (SLSDGLEEV; listed as Homo sapiens) [compound 24] | ″++″ (≥20% = ++)
55 | 375 (SLTETIEGV; listed as Homo sapiens) [compound 375] | ″++″ (≥20% = ++)
56 | 176 (YLMEGSYNKVFL; listed as Homo sapiens) [compound 176] | ″++″ (≥20% = ++)
57 | 296 (FMEGAIIYV; listed as Homo sapiens) [compound 296] | ″+++″ (≥50% = +++)
58 | 34 (ILVEADSLWVV; listed as Homo sapiens) [compound 34] | ″+++″ (≥50% = +++)
59 | 336 (ILLTAIVQV; listed as Homo sapiens) [compound 336] | ″+++″ (≥50% = +++)
60 | 46 (ILTEENIHL; listed as Homo sapiens) [compound 46] | ″+++″ (≥50% = +++)
61 | 68 (SLMELPRGLFL; listed as Homo sapiens) [compound 68] | ″++++″ (≥75% = ++++)
62 | 30 (LILDWVPYI; listed as Homo sapiens) [compound 30] | ″+++″ (≥50% = +++)
63 | 144 (YIMEPSIFNTL; listed as Homo sapiens) [compound 144] | ″+++″ (≥50% = +++)
64 | 269 (RVLEVGALQAV; listed as Homo sapiens) [compound 269] | ″++″ (≥20% = ++)
65 | 6 (VLVSDGVHSV; listed as Homo sapiens) [compound 6] | ″+++″ (≥50% = +++)
66 | 261 (YVLEFLEEI; listed as Homo sapiens) [compound 261] | ″++″ (≥20% = ++)
67 | 432 (TLIEESAKV; listed as Homo sapiens) [compound 432] | ″++″ (≥20% = ++)
68 | 548 (ALWENPESGEL; listed as Homo sapiens) [compound 548] | ″++″ (≥20% = ++)
69 | 211 (LLWPGAALL; listed as Homo sapiens) [compound 211] | ″++″ (≥20% = ++)
70 | 153 (FLIANVLYL; listed as Homo sapiens) [compound 153] | ″+″ (≥10% = +)
71 | 592 (RLLSAAENFL; listed as Homo sapiens) [compound 592] | ″+++″ (≥50% = +++)
72 | 386 (ILFRYPLTI; listed as Homo sapiens) [compound 386] | ″+++″ (≥50% = +++)
73 | 492 (SLFDGFADGLGV; listed as Homo sapiens) [compound 492] | ″+++″ (≥50% = +++)
74 | 39 (SVAPNLPAV; listed as Homo sapiens) [compound 39] | ″+++″ (≥50% = +++)
75 | 47 (ILLSVPLLVV; listed as Homo sapiens) [compound 47] | ″++″ (≥20% = ++)
76 | 187 (RQISIRGIVGV; listed as Homo sapiens) [compound 187] | ″+++″ (≥50% = +++)
77 | 300 (ALLGQTFSL; listed as Homo sapiens) [compound 300] | ″+++″ (≥50% = +++)
78 | 397 (YLFGERLLEC; listed as Homo sapiens) [compound 397] | ″+++″ (≥50% = +++)
